Test results taken from patent publication US20190105401A1.

Target: Hsp60 (chaperonin 60) of human Caco-2 cells (human) (UniProt P10809)
Assay: cell-based or functional assay

Chain of Hsp60 (chaperonin 60) of human Caco-2 cells (human) (P10809 27-573): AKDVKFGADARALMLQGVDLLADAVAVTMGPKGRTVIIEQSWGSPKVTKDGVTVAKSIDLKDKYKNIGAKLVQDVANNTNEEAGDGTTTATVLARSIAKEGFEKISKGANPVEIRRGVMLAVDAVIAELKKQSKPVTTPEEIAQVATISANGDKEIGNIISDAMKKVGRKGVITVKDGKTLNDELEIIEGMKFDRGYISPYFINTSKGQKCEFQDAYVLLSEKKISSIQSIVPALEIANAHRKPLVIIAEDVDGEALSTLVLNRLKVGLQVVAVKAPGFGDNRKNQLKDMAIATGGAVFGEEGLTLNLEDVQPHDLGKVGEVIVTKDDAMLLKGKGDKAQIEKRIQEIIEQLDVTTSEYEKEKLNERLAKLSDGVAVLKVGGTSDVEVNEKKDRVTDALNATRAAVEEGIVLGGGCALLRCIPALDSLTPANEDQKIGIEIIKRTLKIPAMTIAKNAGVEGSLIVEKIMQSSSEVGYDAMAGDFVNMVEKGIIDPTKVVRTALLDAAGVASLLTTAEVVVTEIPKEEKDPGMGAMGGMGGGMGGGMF

Listeria adhesion protein (LAP) on L. monocytogenes F4244 (WT) bacteria (ligand)
IKK-β protein expression level, shRNA vector control Caco-2 cells infected with the WT strain, increase over uninfected: 54%
p65 protein expression level, shRNA vector control Caco-2 cells infected with the WT strain, increase over uninfected: 62%
